# According to US20120316071A1:
# Assays:
# [1] = target: rHuman CD44/Fc Chimera, CF (R&D Systems Cat#3660-CD) (human) (UniProt P16070); assay: Multispot ECL (MSD), antigen spotted on plate, Fab 70 nM; blank spot 635
# [2] = target: rHuman ErbB2/Fc Chimera, CF (R&D Systems Cat#1129-ER) (human) (UniProt P04626); assay: as above
# [3] = target: rHuman HGF R/c-MET/Fc Chimera, CF (R&D Systems Cat#358-MT/CF) (human) (UniProt P08581); assay: as above
# [4] = target: rHuman IGF-1 sR, (IGF-1 sR), CF (R&D Systems Cat#391-GR) (human) (UniProt P08069); assay: as above
# [5] = target: rHuman Notch-1/Fc Chimera, CF (R&D Systems Cat#3647-TK) (human) (UniProt P46531); assay: as above
# [6] = target: rHuman P-Cadherin/Fc Chimera, CF (R&D Systems Cat#861-PC) (human) (UniProt P22223); assay: as above
# [7] = target: rHuman CD44/Fc Chimera, CF (R&D Systems Cat#3660-CD) (human) (UniProt P16070); assay: Multispot ECL (MSD), antigen spotted on plate, Fab 17.5 nM; blank spot 304
# [8] = target: rHuman ErbB2/Fc Chimera, CF (R&D Systems Cat#1129-ER) (human) (UniProt P04626); assay: as above
# [9] = target: rHuman HGF R/c-MET/Fc Chimera, CF (R&D Systems Cat#358-MT/CF) (human) (UniProt P08581); assay: as above
# [10] = target: rHuman IGF-1 sR, (IGF-1 sR), CF (R&D Systems Cat#391-GR) (human) (UniProt P08069); assay: as above
# [11] = target: rHuman Notch-1/Fc Chimera, CF (R&D Systems Cat#3647-TK) (human) (UniProt P46531); assay: as above
# [12] = target: rHuman P-Cadherin/Fc Chimera, CF (R&D Systems Cat#861-PC) (human) (UniProt P22223); assay: as above
# [13] = target: rHuman CD44/Fc Chimera, CF (R&D Systems Cat#3660-CD) (human) (UniProt P16070); assay: Multispot ECL (MSD), antigen spotted on plate, Fab 280 nM; blank spot 1691
# [14] = target: rHuman ErbB2/Fc Chimera, CF (R&D Systems Cat#1129-ER) (human) (UniProt P04626); assay: as above
# [15] = target: rHuman HGF R/c-MET/Fc Chimera, CF (R&D Systems Cat#358-MT/CF) (human) (UniProt P08581); assay: as above
# [16] = target: rHuman IGF-1 sR, (IGF-1 sR), CF (R&D Systems Cat#391-GR) (human) (UniProt P08069); assay: as above
# [17] = target: rHuman Notch-1/Fc Chimera, CF (R&D Systems Cat#3647-TK) (human) (UniProt P46531); assay: as above
# [18] = target: rHuman P-Cadherin/Fc Chimera, CF (R&D Systems Cat#861-PC) (human) (UniProt P22223); assay: as above
# [19] = target: rHuman CD44/Fc Chimera, CF (R&D Systems Cat#3660-CD) (human) (UniProt P16070); assay: Multispot ECL (MSD), antigen spotted on plate, Fab 4.375 nM; blank spot 305
# [20] = target: rHuman ErbB2/Fc Chimera, CF (R&D Systems Cat#1129-ER) (human) (UniProt P04626); assay: as above
# [21] = target: rHuman HGF R/c-MET/Fc Chimera, CF (R&D Systems Cat#358-MT/CF) (human) (UniProt P08581); assay: as above
# [22] = target: rHuman IGF-1 sR, (IGF-1 sR), CF (R&D Systems Cat#391-GR) (human) (UniProt P08069); assay: as above
# [23] = target: rHuman Notch-1/Fc Chimera, CF (R&D Systems Cat#3647-TK) (human) (UniProt P46531); assay: as above
# [24] = target: rHuman P-Cadherin/Fc Chimera, CF (R&D Systems Cat#861-PC) (human) (UniProt P22223); assay: as above
# [25] = target: rHuman EGF R/Fc Chimera, CF (R&D Systems Cat#344-ER) (human) (UniProt P00533); assay: MSD Multispot ECL, antigen spotted on plate, Fab 230 nM; blank spot 1656
# [26] = target: rHuman EGF R/Fc Chimera, CF (R&D Systems Cat#344-ER) (human) (UniProt P00533); assay: MSD Multispot ECL, antigen spotted on plate, Fab 57.5 nM; blank spot 954
# [27] = target: rHuman EGF R/Fc Chimera, CF (R&D Systems Cat#344-ER) (human) (UniProt P00533); assay: MSD Multispot ECL, antigen spotted on plate, Fab 920 nM; blank spot 4082
# [28] = target: rHuman EGF R/Fc Chimera, CF (R&D Systems Cat#344-ER) (human) (UniProt P00533); assay: MSD Multispot ECL, antigen spotted on plate, Fab 14.375 nM; blank spot 738
# rHuman HGF R/c-MET/Fc Chimera, CF (R&D Systems Cat#358-MT/CF) (human), sequence (P08581 25-932, change not shown): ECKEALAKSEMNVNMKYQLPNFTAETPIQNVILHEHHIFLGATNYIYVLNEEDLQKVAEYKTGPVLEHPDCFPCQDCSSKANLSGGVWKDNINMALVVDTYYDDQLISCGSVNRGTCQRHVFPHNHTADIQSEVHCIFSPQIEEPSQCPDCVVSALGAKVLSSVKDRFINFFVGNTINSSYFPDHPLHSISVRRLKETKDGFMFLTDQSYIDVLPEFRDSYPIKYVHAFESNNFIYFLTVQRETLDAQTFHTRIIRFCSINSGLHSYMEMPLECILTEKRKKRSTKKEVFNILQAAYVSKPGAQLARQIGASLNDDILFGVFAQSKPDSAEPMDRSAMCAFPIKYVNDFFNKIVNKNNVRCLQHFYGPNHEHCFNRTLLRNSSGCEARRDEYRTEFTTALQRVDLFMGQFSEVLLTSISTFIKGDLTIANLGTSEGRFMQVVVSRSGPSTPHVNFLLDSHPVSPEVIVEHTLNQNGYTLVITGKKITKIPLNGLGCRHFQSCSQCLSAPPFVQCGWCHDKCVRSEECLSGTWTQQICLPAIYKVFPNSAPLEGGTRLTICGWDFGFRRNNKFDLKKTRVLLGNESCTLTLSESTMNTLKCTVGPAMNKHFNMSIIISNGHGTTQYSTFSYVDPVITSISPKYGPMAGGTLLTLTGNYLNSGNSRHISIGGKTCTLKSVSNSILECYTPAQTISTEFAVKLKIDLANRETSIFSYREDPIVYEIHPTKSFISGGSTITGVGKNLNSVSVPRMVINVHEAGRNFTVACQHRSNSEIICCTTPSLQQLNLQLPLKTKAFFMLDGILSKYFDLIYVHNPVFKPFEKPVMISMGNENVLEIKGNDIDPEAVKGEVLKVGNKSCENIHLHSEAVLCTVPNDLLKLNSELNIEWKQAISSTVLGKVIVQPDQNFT
substance,measurement,setting,value
Fab VH1-46_IGHD2-15*01_IGHJ2*01 & L12_IGKJ1*01,ECL signal,[1],1370
same,ECL signal,[2],1360
same,ECL signal,[3],1290
same,ECL signal,[4],1320
same,ECL signal,[5],1490
same,ECL signal,[6],1820
same,ECL signal,[7],664
same,ECL signal,[8],541
same,ECL signal,[9],565
same,ECL signal,[10],626
same,ECL signal,[11],680
same,ECL signal,[12],949
same,ECL signal,[13],4070
same,ECL signal,[14],3950
same,ECL signal,[15],3560
same,ECL signal,[16],3530
same,ECL signal,[17],4380
same,ECL signal,[18],5400
same,ECL signal,[19],424
same,ECL signal,[20],384
same,ECL signal,[21],193
same,ECL signal,[22],369
same,ECL signal,[23],480
same,ECL signal,[24],469
Fab VH1-46_IGHD3-10*01_IGHJ4*01 & L12_IGKJ1*01,ECL signal,[25],5720
same,ECL signal,[26],3860
same,ECL signal,[27],13400
same,ECL signal,[28],2670
